Data from paper doi:10.1101/2020.09.17.302455.

Biological target: human plasma fibronectin (human)
Assay: ELISA

- percent of BMP2 absorbed: 70 to 80%
B1: bone morphogenetic protein 2 (ligand)
chain: QAKHKQRKRLKSSCKRHPLYVDFSDVGWNDWIVAPPGYHAFYCHGECPFPLADHLNSTNHAIVQTLVNSVNSKIPKACCVPTELSAISMLYLDENEKVVLKNYQDMVVEGCGCR
